From publication PMC7994445, “The actomyosin interface contains an evolutionary conserved core and an ancillary interface involved in specificity” (Nature Communications, 2021) come the findings set out here.

Data set [1] concerns the target T1, PfMyoA motor domain (amino acids 1-K768) with a T417D mutation (Plasmodium falciparum, UniProt Q8IDR3 1-768, T417D).
T1 construct: Plasmodium falciparum myosin A (PfMyoA) heavy chain, motor domain, amino acids 1-K768, with the phosphomimetic mutation T417D (TEDS site, HCM loop); Residue K768 is followed by a Gly-Ser linker and the C-terminal FLAG tag; Nucleotide-free (Rigor) in the structure; also called PfMD; PfMyoA motor-domain construct with a T417D mutation
T1 sequence: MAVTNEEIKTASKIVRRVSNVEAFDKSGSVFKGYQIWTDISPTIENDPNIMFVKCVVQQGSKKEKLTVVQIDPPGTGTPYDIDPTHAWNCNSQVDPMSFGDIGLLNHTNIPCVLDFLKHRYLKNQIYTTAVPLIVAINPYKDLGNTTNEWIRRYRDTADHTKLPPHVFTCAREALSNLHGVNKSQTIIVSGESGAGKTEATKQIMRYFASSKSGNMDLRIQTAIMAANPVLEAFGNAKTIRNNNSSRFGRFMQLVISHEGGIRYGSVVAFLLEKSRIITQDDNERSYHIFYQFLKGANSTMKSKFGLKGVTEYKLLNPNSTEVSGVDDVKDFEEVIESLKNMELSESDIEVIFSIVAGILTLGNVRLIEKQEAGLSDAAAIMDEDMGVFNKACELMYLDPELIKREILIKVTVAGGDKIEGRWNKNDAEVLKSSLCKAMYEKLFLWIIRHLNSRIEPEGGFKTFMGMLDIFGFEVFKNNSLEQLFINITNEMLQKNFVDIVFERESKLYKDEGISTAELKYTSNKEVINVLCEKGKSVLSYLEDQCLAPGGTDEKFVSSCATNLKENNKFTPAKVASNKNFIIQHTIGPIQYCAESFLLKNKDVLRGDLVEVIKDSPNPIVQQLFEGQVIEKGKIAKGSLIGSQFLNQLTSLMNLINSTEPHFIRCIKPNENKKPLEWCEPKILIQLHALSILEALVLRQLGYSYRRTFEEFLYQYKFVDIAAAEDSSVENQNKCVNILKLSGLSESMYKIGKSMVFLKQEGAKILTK
Description: cryo-EM structure; PfMyoA motor domain T417D incubated in solution with JAS-stabilized PfAct1 filaments, vitrified within 15 min; nucleotide-free (Rigor) state; helical reconstruction at 3.8 Å. The conditions noted are these: both partners purified.

Data set [2] concerns the molecule itself. The description is as above.

B1: PfActin-1 filaments (natural protein)
chain: not shown
notes: Plasmodium falciparum actin-1; ends at the final native Phe after chymotrypsin cleavage; Filamentous; unstabilised filaments were used in one motility condition; also called PfAct1; P. falciparum actin 1; not shown: His6, C-terminal, cleaved
As to B1, the binding result in data set [1] and in data set [2] was “binds” throughout.
